Data as given in article PMC8914840.

Target: human alpha thrombin (human, UniProt P00734;P00734 328-363;364-622)
Test: electrochemical aptamer sensor (square-wave voltammetry); 1-500 nM thrombin; 100 Hz optimal; concentration-dependent peak current decrease; LOD 14.7 nM (not a Kd); Electrodes soaked in PBS before measurement (137 mM NaCl, 2.7 mM KCl, 10 mM Na2HPO4, 1.8 mM KH2PO4, pH 7.4); thrombin assay buffer and temperature not given in

**Q.** Does TAAGTTCATCTCCCCGGTTGGTGTGGTTGGT (structured_DNA, 5' SH-(CH2)6; 3' amine conjugated to arPES) [PES-modified TBA (arPES-TBA)] bind?
**A.** binds
